# Laboratory results published in publication PMC8131360, “Phospholipid translocation captured in a bifunctional membrane protein MprF” (Nature Communications, 2021).
# B1: Multiple Peptide Resistance Factor from Rhizobium tropici (RtMprF) (natural protein, UniProt A0A6P1C618 1-869, looked up)
# chain: MSSPIDLESADEELEERGGIVGLLNRYRALIVAVLTVAVFCIAAYAIYDLTTEVRYDDVVHALTTTKISSVLLALLFTGLSFASLIFYDQNALEYIGKRLPFPHVALTSFSAYAVGNTAGFGALSAGAIRYRAYTRLGLSPDDITRVIAFVTLAFGLGLASVGAMALLVIADEIGPLISVDGLWLRLIAIAILAALAFVVYAGRNGREVRIGPVAVRLPDSRTWSRQFLVTAFDIAASASVLYVLLPETSIGWPGFFAIYAIAVGLGVLSHVPAGFGVFETIIIAWLGSSVNEDAVLSSLVLYRVIYNVIPLVIAIAAISVAELRRFVDHPVASSMRRIGARLMPQLLSAFALLLGMMLVFSSVTPTPDHNLIVLSDYLPLSLVESAHFLSSLLGLAIIVAARGLSQRLDGAWWVSTFSALFALFFSLLKAIAIVEAGLLAFFVFSLVVSRRLFKRPASLLNQTLTAGWLTAIAVVCIGAIVVLFFVYRDVGYSNELWWQFEFADEAPRGLRAALGISIVSSAIAIFSLLRPATKRPEPVSDDAVARAVEIVRKQGVADANLVRMGDKSIMFSEKGDAFIMYGKQGRSWIALFDPVGPRQALPDLIWRFVETARAAGCRSVFYQISPALLSYCADAGLRAFKLGELAVVNLANFELKGGKWANLRQTASRAVRDGLEFAVIEPQDIPDVLDQLAHVSDTWLADHNAKEKSFSLGAFDPDYVCSQPVGVLKKDGKIVAFANILMTETKEEGSVDLMRFSPDAPKGSMDFLFVQILEYLKGEGFQRFNLGMAPLSGMSRRESAPVWDRVGGTVFEHGERFYNFKGLRAFKSKFHPEWQPRYLAVSGGVSPMIALMDATFLIGGGLKGVVRK
# notes: MprF (mprF gene) from Rhizobium tropici, full-length protein of 869 amino acid residues; flippase domain (Subdomain 1 Leu24-Arg325, Subdomain 2 Ser334-Arg530) and synthase domain (Pro539-Gly860); also called RtMprF(DDM); RtMprF(GDN); source: E. coli C41(DE3), pET21b; purified (Ni-NTA in β-DDM or GDN) and reconstituted in POPG/MSP1E3D1 nanodiscs (Ni-NTA, SEC); also unpurified, in the E. coli …
# Biological target: the molecule itself
# Test: cryo-EM structure; full-length RtMprF purified in β-DDM or GDN, reconstituted with POPG and MSP1E3D1 (1:2:100) in lipid nanodiscs; 20 mM Tris-HCl pH 7.5, 300 mM NaCl; single-particle analysis, C2 symmetry imposed
protein,measurement,value
B1,stoichiometry N,2
